Where a chain is given by its changes, count along the chain named. Read-outs that look alike come from different tables or passages of the source. Values belong to the binder of their own block, whether it stands above or below them.
Key:
[1] = target: T1, MSLN on OVCAR8 cells (~90K MSLN antigens/cell) (UniProt Q13421 296-598); assay: binding to OVCAR8 cells, MFI APC against mAb concentration
human mesothelin (MSLN) [2] = target: T2, human mesothelin (MSLN) (human, UniProt Q13421 296-580, limits assumed); assay: BLI (Octet), multiple concentrations, bsAb in 1+1 Fab-scFv-Fc format; lower table, column 'human MSLN (M)'
T2 construct: Antigen of the Octet KD values

human mesothelin (MSLN) [3] = target: T2, human mesothelin (MSLN); assay: BLI (Octet), bsAb in 1+1 Fab-scFv-Fc format
[4] = target: T1, MSLN on OVCAR8 cells (~90K MSLN …); assay: binding to OVCAR8 cells, MFI APC against mAb concentration; remark: listed apart in the source
human mesothelin (MSLN) [5] = target: T2, human mesothelin (MSLN); assay: KD quoted in the FIG. 25 legend; Octet (BLI) per FIGS. 20-21
[6] = target: T1, MSLN on OVCAR8 cells (~90K MSLN …); assay: binding to OVCAR8 cells, MFI APC against mAb concentration; remark: listed apart in the source
[7] = target: T1, MSLN on OVCAR8 cells (~90K MSLN …); assay: as above; remark: listed apart in the source

B1: XENP32561 (bispecific antibody)
chain 1: QVQLVQSGAEVKKPGASVKVSCKASGYTFTSYWMHWVRQAPGQGLEWMGMIHPNSDNTIYYEKFQGRVTMTVDKSISTAYMELSRLRSDDTAVYYCAIIITPVVPKFDYWGQGTLVTVSSASTKGPSVFPLAPSSKSTSGGTAALGCLVKDYFPEPVTVSWNSGALTSGVHTFPAVLQSSGLYSLSSVVTVPSSSLGTQTYICNVNHKPSDTKVDKKVEPKSCDKTHTCPPCPAPPVAGPSVFLFPPKPKDTLMISRTPEVTCVVVDVKHEDPEVKFNWYVDGVEVHNAKTKPREEEYNSTYRVVSVLTVLHQDWLNGKEYKCKVSNKALPAPIEKTISKAKGQPREPQVYTLPPSREEMTKNQVSLTCDVSGFYPSDIAVEWESDGQPENNYKTTPPVLDSDGSFFLYSKLTVDKSRWEQGDVFSCSVMHEALHNHYTQKSLSLSPGK
chain 2: not shown
chain 3: DIVMTQSPDSLAVSLGERATINCKASHSVGTSVAWYQQKPGQSPKLLIYWASTRHTGVPDRFTGSGSGTDFTLTISSLQAEDVAVYFCQQYSSYPLTFGAGTKLEIKRTVAAPSVFIFPPSDEQLKSGTASVVCLLNNFYPREAKVQWKVDNALQSGNSQESVTEQDSKDSTYSLSSTLTLSKADYEKHKVYACEVTHQGLSSPVTKSFNRGEC
EC50 (read off the curve) [1]: ~0.2 µg/mL | Kd (human mesothelin (MSLN) [2]): 0.45 nM | Kd (human mesothelin (MSLN) [3]): 0.355 nM | Response (human mesothelin (MSLN) [3]): 1.08 | koff (human mesothelin (MSLN) [3]): 0.000215 s⁻¹ | kon (human mesothelin (MSLN) [3]): 606000 M⁻¹ s⁻¹

B3: XENP31697 (bispecific antibody)
chain 1: B1 chain 1
chain 2: not shown
chain 3: B1 chain 3 with S28D
EC50 (read off the curve) [6]: ~0.07 µg/mL | Kd (human mesothelin (MSLN) [2]): 0.28 nM

B4: XENP32562 (bispecific antibody)
chain 1: B1 chain 1
chain 2: not shown
chain 3: B1 chain 3 with S28D, G30L
EC50 (read off the curve) [7]: ~0.2 µg/mL | Kd (human mesothelin (MSLN) [2]): 0.74 nM | Kd (human mesothelin (MSLN) [3]): 0.628 nM | Response (human mesothelin (MSLN) [3]): 1.01 | koff (human mesothelin (MSLN) [3]): 0.000409 s⁻¹ | kon (human mesothelin (MSLN) [3]): 651000 M⁻¹ s⁻¹

B7: XENP31717 (bispecific antibody)
chain 1: B1 chain 1
chain 2: QVQLVQSGAEVKKPGASVKVSCKASGYTFTSYWMHWVRQAPGQGLEWMGMIHPNSDNTIYYEKFQGRVTMTVDKSISTAYMELSRLRSDDTAVYYCAIIITPVVPKFDYWGQGTLVTVSSASTKGPSVFPLAPSSKSTSGGTAALGCLVKDYFPEPVTVSWNSGALTSGVHTFPAVLQSSGLYSLSSVVTVPSSSLGTQTYICNVNHKPSNTKVDKKVEPKSCGGGGSGGGGSQAVVTQEPSLTVSPGGTVTLTCGSSTGAVTTSNYANWVQQKPGKSPRGLIGGTNKRAPGVPARFSGSLLGGKAALTISGAQPEDEADYYCALWYSNHWVFGGGTKLTVLGKPGSGKPGSGKPGSGKPGSEVQLVESGGGLVQPGGSLRLSCAASGFTFSTYAMNWVRQAPGKGLEWVGRIRSKANNYATYYADSVKGRFTISRDDSKNTLYLQMNSLRAEDTAVYYCVRHGNFGDSYVSWFAYWGQGTLVTVSSGGGGSGGGGSKTHTCPPCPAPPVAGPSVFLFPPKPKDTLMISRTPEVTCVVVDVKHEDPEVKFNWYVDGVEVHNAKTKPREEQYNSTYRVVSVLTVLHQDWLNGKEYKCKVSNKALPAPIEKTISKAKGQPREPQVYTLPPSREQMTKNQVKLTCLVKGFYPSDIAVEWESNGQPENNYKTTPPVLDSDGSFFLYSKLTVDKSRWQQGNVFSCSVMHEALHNHYTQKSLSLSPGK
chain 3: B1 chain 3 with S28D
Kd (human mesothelin (MSLN) [5]): 0.28 nM | EC50 (read off the curve) [6]: ~0.04 µg/mL

Further lines, results first:

EC50 (read off the curve) [4]: ~0.06 µg/mL | Kd (human mesothelin (MSLN) [5]): 3.9 nM
B2: XENP32852 (bispecific antibody)
chain 1: B1 chain 1
chain 2: B7 chain 2
chain 3: B1 chain 3 with S28D, S92Y

EC50 (read off the curve) [7]: ~0.04 µg/mL | Kd (human mesothelin (MSLN) [5]): 0.74 nM
B5: XENP32748 (bispecific antibody)
chain 1: B1 chain 1
chain 2: B7 chain 2
chain 3: B1 chain 3 with S28D, G30L

EC50 (read off the curve) [1]: ~0.05 µg/mL | Kd (human mesothelin (MSLN) [5]): 0.45 nM
B6: XENP32745 (bispecific antibody)
chain 1: B1 chain 1
chain 2: B7 chain 2
chain 3: B1 chain 3

EC50 (read off the curve) [4]: ~0.06 µg/mL | Kd (human mesothelin (MSLN) [5]): 3.9 nM
B8: XENP32853 (bispecific antibody)
chain 1: B1 chain 1
chain 2: QVQLVQSGAEVKKPGASVKVSCKASGYTFTSYWMHWVRQAPGQGLEWMGMIHPNSDNTIYYEKFQGRVTMTVDKSISTAYMELSRLRSDDTAVYYCAIIITPVVPKFDYWGQGTLVTVSSASTKGPSVFPLAPSSKSTSGGTAALGCLVKDYFPEPVTVSWNSGALTSGVHTFPAVLQSSGLYSLSSVVTVPSSSLGTQTYICNVNHKPSNTKVDKKVEPKSCGGGGSGGGGSQAVVTQEPSLTVSPGGTVTLTCGSSTGAVTTSNYANWVQQKPGKSPRGLIGGTNKRAPGVPARFSGSLLGGKAALTISGAQPEDEADYYCALWYSNHWVFGGGTKLTVLGKPGSGKPGSGKPGSGKPGSEVQLVESGGGLVQPGGSLRLSCAASGFTFSTYAMNWVRQAPGKGLEWVGRIRSKYNNYATYYADSVKGRFTISRDDSKNTLYLQMNSLRAEDTAVYYCVRHGNFGDEYVSWFAYWGQGTLVTVSSEPKSSDKTHTCPPCPAPPVAGPSVFLFPPKPKDTLMISRTPEVTCVVVDVKHEDPEVKFNWYVDGVEVHNAKTKPREEQYNSTYRVVSVLTVLHQDWLNGKEYKCKVSNKALPAPIEKTISKAKGQPREPQVYTLPPSREQMTKNQVKLTCLVKGFYPSDIAVEWESNGQPENNYKTTPPVLDSDGSFFLYSKLTVDKSRWQQGNVFSCSVMHEALHNHYTQKSLSLSPGK
chain 3: B1 chain 3 with S28D, S92Y

From US20230340128A1 (Xencor, published 2023)
